Test results reported in patent US20030165527A1 (published 2003).

Target: T1, collagen type I from calf skin (Boehringer) (calf, UniProt P02453 162-1217; P02465 80-1117)
T1 construct: Bought preparation coated on microtiter wells
Experiment: not described; control for the collagen-Fn inhibition ELISA

T1 sequence (P02453 162-1217 limits assumed, chain 1 of 2): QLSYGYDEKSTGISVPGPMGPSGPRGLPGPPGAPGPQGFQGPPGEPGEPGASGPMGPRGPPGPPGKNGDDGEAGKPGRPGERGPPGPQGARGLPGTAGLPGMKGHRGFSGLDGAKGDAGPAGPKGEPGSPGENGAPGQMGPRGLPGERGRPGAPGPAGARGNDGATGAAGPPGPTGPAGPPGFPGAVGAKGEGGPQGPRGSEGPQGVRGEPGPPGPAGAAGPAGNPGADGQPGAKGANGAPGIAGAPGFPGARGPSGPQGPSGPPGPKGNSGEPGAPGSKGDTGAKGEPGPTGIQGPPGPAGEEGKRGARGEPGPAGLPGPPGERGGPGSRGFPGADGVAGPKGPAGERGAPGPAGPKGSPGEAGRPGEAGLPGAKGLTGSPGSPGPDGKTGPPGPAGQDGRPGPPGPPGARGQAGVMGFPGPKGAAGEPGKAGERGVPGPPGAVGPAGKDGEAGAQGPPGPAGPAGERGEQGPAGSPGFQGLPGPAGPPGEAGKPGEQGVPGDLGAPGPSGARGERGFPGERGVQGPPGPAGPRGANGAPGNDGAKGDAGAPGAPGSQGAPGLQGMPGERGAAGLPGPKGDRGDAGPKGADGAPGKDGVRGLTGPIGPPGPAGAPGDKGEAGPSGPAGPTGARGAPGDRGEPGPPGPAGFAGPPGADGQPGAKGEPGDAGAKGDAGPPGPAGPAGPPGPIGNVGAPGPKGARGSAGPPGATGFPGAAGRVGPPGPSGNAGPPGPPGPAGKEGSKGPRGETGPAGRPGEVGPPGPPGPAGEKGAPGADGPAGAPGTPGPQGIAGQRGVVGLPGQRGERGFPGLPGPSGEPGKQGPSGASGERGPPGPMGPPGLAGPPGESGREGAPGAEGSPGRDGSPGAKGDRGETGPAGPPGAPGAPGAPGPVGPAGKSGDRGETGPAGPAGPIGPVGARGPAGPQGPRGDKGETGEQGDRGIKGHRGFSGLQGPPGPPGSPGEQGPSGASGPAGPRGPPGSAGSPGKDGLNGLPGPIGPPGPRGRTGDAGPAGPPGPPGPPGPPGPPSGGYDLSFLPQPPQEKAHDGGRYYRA
T1 sequence (P02465 80-1117 limits assumed, chain 2 of 2): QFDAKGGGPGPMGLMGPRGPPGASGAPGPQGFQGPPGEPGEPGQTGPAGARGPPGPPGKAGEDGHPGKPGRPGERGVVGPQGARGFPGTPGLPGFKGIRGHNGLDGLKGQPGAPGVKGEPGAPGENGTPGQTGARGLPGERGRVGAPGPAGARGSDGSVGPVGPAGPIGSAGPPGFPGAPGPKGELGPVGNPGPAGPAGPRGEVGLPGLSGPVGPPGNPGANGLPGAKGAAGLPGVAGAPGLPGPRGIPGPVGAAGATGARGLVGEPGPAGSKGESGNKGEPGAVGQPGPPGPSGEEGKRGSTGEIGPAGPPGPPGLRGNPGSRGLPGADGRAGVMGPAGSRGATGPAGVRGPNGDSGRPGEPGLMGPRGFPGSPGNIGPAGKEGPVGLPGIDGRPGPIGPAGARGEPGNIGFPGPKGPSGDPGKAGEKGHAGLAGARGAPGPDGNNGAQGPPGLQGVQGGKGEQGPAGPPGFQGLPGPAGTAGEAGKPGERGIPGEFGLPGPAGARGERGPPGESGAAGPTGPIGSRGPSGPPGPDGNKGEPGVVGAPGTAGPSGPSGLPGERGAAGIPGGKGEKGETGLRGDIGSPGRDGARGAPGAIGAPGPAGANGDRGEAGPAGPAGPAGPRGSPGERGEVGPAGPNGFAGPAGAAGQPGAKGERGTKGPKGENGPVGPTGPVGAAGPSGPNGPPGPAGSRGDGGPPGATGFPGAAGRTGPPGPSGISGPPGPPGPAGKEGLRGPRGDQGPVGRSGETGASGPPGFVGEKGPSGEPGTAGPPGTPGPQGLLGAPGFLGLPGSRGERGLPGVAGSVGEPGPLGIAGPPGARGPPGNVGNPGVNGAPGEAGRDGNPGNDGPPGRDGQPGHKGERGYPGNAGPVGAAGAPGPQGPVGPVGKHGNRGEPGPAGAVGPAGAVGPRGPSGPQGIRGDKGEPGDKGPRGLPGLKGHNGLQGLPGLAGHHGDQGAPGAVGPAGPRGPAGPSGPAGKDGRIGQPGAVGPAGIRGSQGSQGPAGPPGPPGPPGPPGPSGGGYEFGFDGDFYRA

B1: recombinant fusion protein SFS-E (mature protein SFS of Streptococcus equi subsp. equi Bd 3221 with E-tag) (other)
chain: GAALVFGGLLGSLGGSSHQARPKEQPVSSIGDDDKSHKSSSDQPTNHQHQATSPSQPTAKSSGHHGNQPQSLSVNSQGNSSGQASEPQAIPNQHHQPQGKPQHLDLGKDNSSPQPQPKPQGNSPKLPEKGLNGENQKEPEQGERGLPGLNGENQKEPEQGERGEAGPPSTPNLEGNNRKNPLKGLDGENKPKEDLDGYNHGRRDGYRVGYEDGYGGKKHKGDYPKRFDESSPKEYNDYSQGYNDNYGNGNPD
notes: PCR fragment encoding the mature SFS was cloned into pG8SAET and purified from the periplasm on an anti-E tag column; both are treated as one molecule; also called recombinant protein SFS; not shown: 13 amino acid peptide tag (E-tag) encoded by vector pG8SAET
B1: no binding.
